According to US6897044 (Biogen, dated 2005):

T1: CD20 antigen (human, UniProt P11836 1-297)
T1 construct: whole, on cells; Carried by the cell lines SKW and SB (CD20+/CD23+) and DHL-4 (CD20+/CD23-); also called human CD20
T1 sequence (looked up): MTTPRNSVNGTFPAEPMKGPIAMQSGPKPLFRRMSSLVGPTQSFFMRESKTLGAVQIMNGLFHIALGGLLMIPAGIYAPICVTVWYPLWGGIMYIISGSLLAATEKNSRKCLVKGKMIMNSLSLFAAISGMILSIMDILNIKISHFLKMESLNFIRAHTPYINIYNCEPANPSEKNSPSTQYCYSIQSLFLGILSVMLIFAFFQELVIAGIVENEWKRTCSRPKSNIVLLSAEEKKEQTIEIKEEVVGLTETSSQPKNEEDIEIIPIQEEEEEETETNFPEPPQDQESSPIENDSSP


Assays:
[1] = molecular target: T1, CD20 antigen; assay: competitive binding on SKW cells against murine 2B8, flow cytometry with FITC anti-human IgG (by the method, 2B8 was serially diluted and C2B8 fixed at 1 µg/ml)
Method: (§1) Binding of monomer and dimerized antibody to various cells was evaluated by indirect immunostaining using FITC anti-human IgG and analyzed using flow cytometry (indirect IF). Cells (2×10^6 viable cells in 0.1 ml cmfPB S/2% Fetal Calf Serum/0.1% Sodium Azide, PBS/FCS buffer) were incubated for one hour on ice with 0.1 ml of 5 fold serially diluted antibody. Cells were twice washed by centrifugation (200×g) using 2 ml PBS/wash and suspended in 0.2 ml FITC conjugated Goat (Fab')_2 anti-human IgG (Jackson Immunoresearch #30869, 5 µg/ml in PBSIFCS buffer). After 30-min. incubation on ice, cells were again washed in PBS and suspended in 0.2 ml 0.5% freshly diluted formaldehyde, capped and stored at 4° C. until analysis. The amount of cell bound antibody was determined by flow cytometry (FACScan, Becton-Dickenson, Mountain View, Calif.).
(§2) The binding affinity of the C2B8 homodimer and monomer for the CD20 antigen was compared using a competitive binding assay (FIG. 10). SKW cells were first incubated for 30 minutes on ice with various amounts of 5-fold serially diluted murine (anti-CD20) MAb 2B8, and by 0.1 ml (at 1 µg/ml) of either C2B8 monomer or homodimer. Indirect IF, as described for FIG. 9, evaluated the amount of C2B8 binding. […]

[2] = molecular target: T1, CD20 antigen; assay: competitive binding on SKW cells against murine 2B8, flow cytometry with FITC anti-human IgG (by the method, 2B8 was serially diluted and homodimer fixed at 1 µg/ml)
Method: as §1, §2

IC50 [1] | IC50 [2] | Binder
9.8 µg/mL |  | C2B8, mouse/human chimeric monoclonal antibody specific for CD20 (150 kDa IgG monomer) (antibody, V domains shown, also called C2B8 monomer; chimeric C2B8) VH: QVQLQQPGAELVKPGASVKMSCKASGYTFTSYNMHWVKQTPGRGLEWIGAIYPGNGDTSYNQKFKGKATLTADKSSSTAYMQLSSLTSEDSAVYYCARSTYYGGDWYFNVWGAGTTVTVSA VL: QIVLSQSPAILSASPGEKVTMTCRASSSVSYIHWFQQKPGSSPKRWIYATSNLASGVPVRFSGSGSGTSYSLTISRVEAEDAATYYCQQWTSNPPTFGGGAKLEIKR
 | 10.4 µg/mL | C2B8 (-s-s-) homodimer, disulfide linked IgG/IgG homodimer of C2B8/SH (300 kDa, tetravalent) (antibody, V domains shown, engineered cysteine near the carboxyl terminus of the gamma 1 chain (printed as position 444 and as position 445) joins the two IgG molecules by an intermolecular disulfide bond, also called C2B8 (disulfide linked) homodimer; C2B8 homodimer) VH: QVQLQQPGAELVKPGASVKMSCKASGYTFTSYNMHWVKQTPGRGLEWIGAIYPGNGDTSYNQKFKGKATLTADKSSSTAYMQLSSLTSEDSAVYYCARSTYYGGDWYFNVWGAGTTVTVSA VL: QIVLSQSPAILSASPGEKVTMTCRASSSVSYIHWFQQKPGSSPKRWIYATSNLASGVPVRFSGSGSGTSYSLTISRVEAEDAATYYCQQWTSNPPTFGGGAKLEIKR
